The source of these data is US9803012B2, “Compositions and methods for regulating SAS1R” (UNIVERSITY OF VIRGINIA PATENT FOUNDATION, priority 2005, dated 2017).

One experiment relates to zona-free mouse eggs. As to the kind of experiment: In vitro fertilization with zona-free eggs (sperm-oolemma binding and fusion). It is filed as cell-based.
In a further experiment the target is T1, rSAS1R (Mus musculus, UniProt Q6HA09).
T1 construct: The mature rSAS1R (414 residues); 20 vector-encoded residues including His6 (pET-28b) (N); made in house; host or cells: E. coli BL21DE3
T1 sequence (Q6HA09 22-435): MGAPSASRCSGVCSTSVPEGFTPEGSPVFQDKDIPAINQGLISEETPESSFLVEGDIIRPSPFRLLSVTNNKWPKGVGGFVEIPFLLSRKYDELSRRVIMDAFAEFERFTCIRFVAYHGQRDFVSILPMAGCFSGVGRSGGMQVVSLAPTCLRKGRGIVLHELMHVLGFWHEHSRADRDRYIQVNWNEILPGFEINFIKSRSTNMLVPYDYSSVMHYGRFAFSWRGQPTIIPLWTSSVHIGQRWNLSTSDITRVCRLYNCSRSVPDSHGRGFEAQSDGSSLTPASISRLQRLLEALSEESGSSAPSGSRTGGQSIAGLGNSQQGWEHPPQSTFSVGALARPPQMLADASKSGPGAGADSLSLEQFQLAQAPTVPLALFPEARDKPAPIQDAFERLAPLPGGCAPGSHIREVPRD
T1 sequence (Q9D9X8 94-221 partner limits assumed): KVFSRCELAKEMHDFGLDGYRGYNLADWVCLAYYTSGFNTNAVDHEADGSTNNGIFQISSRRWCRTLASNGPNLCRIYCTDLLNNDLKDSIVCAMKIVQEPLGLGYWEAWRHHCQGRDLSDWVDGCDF
The experiment can be described thus: Far-Western analysis between SAS1R and SLLP1. In kind it is binding. How it is done: Purified rSAS1R on nitrocellulose membrane was overlaid or not with soluble rSLLP1, washed and probed with anti-SLLP1 antibody.
Purified recombinant SAS1R was resolved by SDS-PAGE and transferred to nitrocellulose membranes. The membrane was probed with c-terminal anti-his monoclonal antibody and developed with TMB. Duplicate SAS1R blotted strips were overlaid with mouse rSLLP1 or not (with 5 μg/ml in blocking buffer i.e., 5% milk in PBS with 0.05% Tween 20 [PBST]) for 90 min at room temperature. Before protein overlay, the strips were incubated with blocking buffer for 1 h. Following overlay, the strips were incubated with either anti-SLLP1 (ADD2) monoclonal antibody for 1 h in blocking buffer. After washing in PBST (×4), the strips were probed with goat anti-mouse HRP secondary antibody in blocking buffer for 1 h, washed in PBST (×4) followed by PBS (×1), and developed with TMB.
To that end, 7.0 μg of recombinant ZEP was loaded onto a 12% SDS gel, subjected to PAGE, and transferred to a nitrocellulose membrane. The membrane was overlaid (OL) with recombinant SLLP1 (2.0 μg/ml) and probed with anti-SLLP1 monoclonal antibody and secondary antibody.

The next experiment deals with M2 oocytes. The experiment can be described thus: Co-localization of rSLLP1 binding sites and SAS1R on oocytes. It is filed as cell-based, mouse. The note with it: oocytes incubated with rSLLP1, probed with SLLP1 and SAS1R antibodies. How it is done:
Zona intact-, zona free oocytes, early embryos and sperm were collected as before (10), blocked and probed with 1st and 2nd antibody and imaged with UV-microscopy. For co-LC studies, gametes were incubated with soluble rSAS1R or rSLLP1, washed, probed with 1st- and 2nd antibodies and imaged with UV-microscopy.
Mouse oocytes were also examined for co-localization of SLLP1 binding sites and SAS1R localization. Oocytes were incubated with gradually increasing concentrations (0-100 μg/ml) of recombinant SLLP1 for 1 h, and then oocytes were washed five times and incubated with guinea pig anti-recombinant SAS1R polyclonal antibody (1:200) and rat anti-recombinant SLLP1 polyclonal antibody (1:200), simultaneously, in 0.1% NGS/media for 1 h at 37° C. and 5% CO2. Oocytes were washed five times and incubated with goat anti-guinea pig/Cy3 Red antibody (1:200) (Jackson ImmunoResearch, PA) and goat anti-rat/FITC Green antibody (1:200) (Jackson ImmunoResearch, PA), in 0.1% NGS/media for 1 h at 37° C. and 5% CO2. Oocytes were washed and mounted in media on glass slides. SLLP1 and SAS1R images were captured separately with MrGrab 1.0 (Carl Zeiss Vision GmbH, Germany) on the Zeiss Standard 18 ultraviolet microscope and were merged digitally to evaluate their respective localizations.

The test system of another experiment is cumulus intact oocytes. The experiment can be described thus: In vitro fertilization with cumulus-oocyte complexes (SLLP1 antiserum, recmSLLP1). In kind it is cell-based, mouse. Particulars: for % Fertilization: oocytes 45 min prior to insemination. How it is done: Hybrid F1 mice (C57BL/6J×CBA) were used in all experiments. Suspensions of epididymal spermatozoa from sexually mature male mice were prepared for insemination of isolated oocytes. Oocytes were obtained from 28-day-old females superovulated with 10 IU PMSG and 10 IU hCG, injected intraperitoneally 48 h apart. Females were killed 16 h after hCG injection and both oviducts were immediately removed and placed in mineral oil.
In vitro fertilization with cumulus intact oocytes was conducted with sperm dispersed from cauda epididymides placed for 5 min in 200 μl drops of fertilization medium under paraffin oil. The sperm suspension was diluted to a concentration of 10^6 sperm/ml in a volume of 200 μl and then incubated for 120 min in a humidified tissue culture incubator (37° C., 5% CO2 in air) to allow capacitation. In the experiments where anti-recmSLLP1 serum was tested, spermatozoa were incubated with varying concentrations of decomplemented (56° C., 30 min) immune or preimmune serum for the last 45 min of capacitation. In the experiments where recmSLLP1 was evaluated, spermatozoa were incubated under standard capacitating conditions.
Cumulus masses were placed in 135 μl drops of fertilization medium (one mass per drop) under paraffin oil and were incubated for 45 min with immune or preimmune serum or in presence or absence of recmSLLP1 prior to insemination. Fifteen μl of the sperm suspension (final concentration: 10^5 sperm/ml) was then added to each cumulus mass drop. Thus, sera or recombinant protein was present in the incubation droplet during gamete interaction. Six hours following insemination oocytes were relocated in 100 μl drops of fertilization medium under mineral oil. Following overnight incubation, eggs were stained in Hoechst dye (10 μg/ml) for 10 min and washed 3 times in fertilization medium. The eggs were then placed in a 5 μl drop of fertilization medium between a microscope slide and an elevated coverslip, and visualized at 160× using light and fluorescence microscopy (Zeiss Axioplan). Two cells embryos were scored as fertilized, while one-celled oocytes were scored as unfertilized.

Setting [1] is: rSLLP1 overlay 5 μg/ml, anti-SLLP1 monoclonal antibody.

B1: recmSLLP1: mature mouse SLLP1, residues 94 to 221, six-histidine C terminal tag, expressed in E. coli, about 15 kDa (protein)
chain: T1 sequence (Q9D9X8 94-221 partner limits assumed)
modifications: left off: small tags and cut ends
In the case of B1, in the experiment on zona-free mouse eggs, the “percentages of motile spermatozoa compared to the control” value is “no difference”. In addition, the “binding to recombinant ZEP bands” value with rSAS1R (7.0 μg recombinant ZEP, recombinant SLLP1 overlay 2.0 μg/ml) was “signal was observed with the upper band of ZEP, but not with the lower band”. In the experiment with rSAS1R (setting [1]), the “interaction with C-terminal SAS1R fragment (~25 kD)” value is “very weakly” and the “interaction with full length SAS1R doublet (~51, ~50 kD)” value is “interacted strongly”. In addition, the binding to oocytes result in the experiment on M2 oocytes is “binds to oocyte microvillar domain and co-localizes with native SAS1R”. In addition, in the experiment on cumulus intact oocytes (recmSLLP1 50 μg/ml), the “difference in percentage of fertilization vs control” value is listed as “no significant difference” and the “% Fertilization” value amounted to 48%. Moreover, the “inhibition of fertilization rate vs control” value in the experiment on cumulus intact oocytes (recmSLLP1 200 μg/ml, P≦0.05) was 73%. Further, the “% Fertilization” value with cumulus intact oocytes (recmSLLP1 200 μg/ml) came out at 12%.
